Source: PMC5641968 (2017)
Like-named read-outs stand apart in the source and are kept apart here.

Legend:
Test in all cases: biolayer interferometry
calmodulin [1] = biological target: calmodulin (UniProt P0DP23)
calmodulin [2] = biological target: calmodulin (UniProt P0DP23); remark: listed apart in the source
calmodulin [3] = biological target: calmodulin (UniProt P0DP23); remark: listed apart in the source

Kd (calmodulin [1]): 0.645 nM
Kd (calmodulin [2]): 0.65 nM
Kd (calmodulin [3]): 0.5 nM
B1: eNOS (protein)
chain: GNLKSVGQEPGPPCGLGLGLGLGLCGKQGPASPAPEPSRAPAPATPHAPDHSPAPNSPTLTRPPEGPKFPRVKNWELGSITYDTLCAQSQQDGPCTPRCCLGSLVLPRKLQTRPSPGPPPAEQLLSQARDFINQYYSSIKRSGSQAHEERLQEVEAEVASTGTYHLRESELVFGAKQAWRNAPRCVGRIQWGKLQVFDARDCSSAQEMFTYICNHIKYATNRGNLRSAITVFPQRAPGRGDFRIWNSQLVRYAGYRQQDGSVRGDPANVEITELCIQHGWTPGNGRFDVLPLLLQAPDEAPELFVLPPELVLEVPLEHPTLEWFAALGLRWYALPAVSNMLLEIGGLEFSAAPFSGWYMSTEIGTRNLCDPHRYNILEDVAVCMDLDTRTTSSLWKDKAAVEINLAVLHSFQLAKVTIVDHHAATVSFMKHLDNEQKARGGCPADWAWIVPPISGSLTPVFHQEMVNYILSPAFRYQPDPWKGSATKGAGITRKKTFKEVANAVKISASLMGTLMAKRVKATILYASETGRAQSYAQQLGRLFRKAFDPRVLCMDEYDVVSLEHEALVLVVTSTFGNGDPPENGESFAAALMEMSGPYNSSPRPEQHKSYKIRFNSVSCSDPLVSSWRRKRKESSNTDSAGALGTLRFCVFGLGSRAYPHFCAFARAVDTRLEELGGERLLQLGQGDELCGQEEAFRGWAKAAFQASCETFCVGEEAKAAAQDIFSPKRSWKRQRYRLSTQAEGLQLLPGLIHVHRRKMFQATVLSVENLQSSKSTRATILVRLDTAGQEGLQYQPGDHIGICPPNRPGLVEALLSRVEDPPPPTESVAVEQLEKGSPGGPPPSWVRDPRLPPCTLRQALTFFLDITSPPSPRLLRLLSTLAEEPSEQQELETLSQDPRRYEEWKWFRCPTLLEVLEQFPSVALPAPLLLTQLPLLQPRYYSVSSAPNAHPGEVHLTVAVLAYRTQDGLGPLHYGVCSTWLSQLKTGDPVPCFIRGAPSFRLPPDPYVPCILVGPGTGIAPFRGFWQERLHDIESKGLQPAPMTLVFGCRCSQLDHLYRDEVQDAQERGVFGRVLTAFSREPDSPKTYVQDILRTELAAEVHRVLCLERGHMFVCGDVTMATSVLQTVQRILATEGDMELDEAGDVIGVLRDQQRYHEDIFGLTLRTQEVTSRIRTQSFSLQERHLRGAVPWAFDPPGPDTPGP
modifications: Ca2+
